# Measurements reported in publication PMC12456132.
# Molecular target: neuraminidase (NA) from A/Brisbane/02/2018 (H1N1), wild type (influenza A virus A/Brisbane/02/2018 (H1N1))
# Experiment: non-reducing SDS-PAGE
substance,measurement,value
"neuraminidase (NA) from A/Brisbane/02/2018 (H1N1), wild type (natural protein)",stoichiometry N,2
